According to article PMC11601262:

Biological target: T1, CFP tagged hABHD5 (FCCS) (human), Q8WTS1
T1 chain: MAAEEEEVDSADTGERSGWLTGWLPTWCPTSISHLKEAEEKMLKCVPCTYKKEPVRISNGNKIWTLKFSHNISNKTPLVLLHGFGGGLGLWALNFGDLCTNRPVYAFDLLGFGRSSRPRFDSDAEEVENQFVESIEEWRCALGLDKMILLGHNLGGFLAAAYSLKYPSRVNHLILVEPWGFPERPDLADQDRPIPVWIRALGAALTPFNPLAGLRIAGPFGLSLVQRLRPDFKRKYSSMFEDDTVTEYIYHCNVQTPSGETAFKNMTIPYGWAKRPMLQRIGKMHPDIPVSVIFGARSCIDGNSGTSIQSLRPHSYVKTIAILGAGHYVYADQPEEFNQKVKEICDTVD
Assay: fluorescence cross-correlation spectroscopy
Details: remark: other sources report otherwise

B1: hPNPLA3 WT-EYFP, Q9NST1 1-481 (natural protein)
chain: MYDAERGWSLSFAGCGFLGFYHVGATRCLSEHAPHLLRDARMLFGASAGALHCVGVLSGIPLEQTLQVLSDLVRKARSRNIGIFHPSFNLSKFLRQGLCKCLPANVHQLISGKIGISLTRVSDGENVLVSDFRSKDEVVDALVCSCFIPFYSGLIPPSFRGVRYVDGGVSDNVPFIDAKTTITVSPFYGEYDICPKVKSTNFLHVDITKLSLRLCTGNLYLLSRAFVPPDLKVLGEICLRGYLDAFRFLEEKGICNRPQPGLKSSSEGMDPEVAMPSWANMSLDSSPESAALAVRLEGDELLDHLRLSILPWDESILDTLSPRLATALSEEMKDKGGYMSKICNLLPIRIMSYVMLPCTLPVESAIAIVQRLVTWLPDMPDDVLWLQWVTSQVFTRVLMCLLPASRSQMPVSSQQASPCTPEQDWPCWTPCSPKGCPAETKAEATPRSILRSSLNFFLGNKVPAGAEGLSTFPSFSLEKSL
**Q.** Which results are given for B1?
**A.** percent of ABHD5 co-diffusing with PNPLA3: 24%; percent of PNPLA3 co-diffusing with ABHD5: 78%
